Measured values as given in the DeepSol protein solubility set.

Assay: soluble on expression in E. coli; label from the status in PepcDB or PDB records

| Sequence | soluble on expression in E. coli |
| --- | --- |
| MAGDPMSTVAFHTLGCKVNHYETEAIWQLFKEANYERVDFEANADVFVINTCTVTNTGDKKSRQIIRRAIRQNPDAVICVTGCYAQTSSAEIMEIPGVDVVVGTQDRHKLLGYIDEFRKERQPINGVGNIMKNRKYEELDVPYFTDRTRASLKIQEGCNNFCTFCIIPWARGLMRSRDPEKVVEQATQLVNSGYKEIVLTGIHTGGYGQDLKDYNLAQLLRDLETINGLERIRISSIEASQLTDEVIDVLERSTKVVRHLHIPLQSGSDTVLKRMRRKYTMDRFSERLTKLHKALPDLAVTSDVIVGFPGETEAEFQETYDFIVKHKFSELHVFPYSPRIGTPAARMDDQIDEEIKNERVHKLITLSNQLGKLYASKFDQDVLEVIPEEQGDTEGTLVGYADNYMKVQFEGDESLIGQIVKVKITQANYPLNEGQAIKVVDFATNKSDREVLVLEHHHHHH | soluble |
| MAGDPMTIYEQHFIFSDRIVPIRVRENKYARRLILRIDARGREICVTTPPAINLYSIQGFIAKHQSWIEARLARVQIAHANSYLKEGTKIPLLGIPHTIQRKEGRGITEIVAGDVRQEPKIVVYGQLEYLPRRIADVLKKQAALIITPLVKCYARKVERKVKSICYKDTKSRWGSCSIHGNLSFSWRLVMAPQEVIEYVVAHEVAHLIEMNHGPKFWALCEKLCPKSEAYRTWLKENGHMLQAVNFHSYRLEILEHHHHHH | soluble |
| MAGDPNSMKRKPAVAGLFYPSRRDELIEQIRMCFLDKRIGPGKLPGPVETKLQNPIGLVSPHAGYIYSGPVAAWGFLEAVKFGEPSVVVIIGPNHTGLGRPVGVWPEGEWETPLGTVPVNERAVEIVLSNSRYAEEDFMSHIREHSIEVQIPFLQFVFGEVSIVPICLMDQSPAVAEDLASALAKLVAEFPGVLIIASTDLNHYEDQRTTLRKDSYIIEAIEGMDPSLLYEYLVREDISMCGYGGVATLLNMDFENVRILKHATSGDVSGDTLEVVGYLSAILFLEHHHHHH | not soluble |
| MAGDPNSMKYSDLRDFIAQLESRELLKRIDYPVSPHLEMTLVSDKVLRSGGPALLFTNTPNYNMPVLTNLFGTVERVALGMGEESIVALREIGKLLAALKEPDPPKGFKDAFSKLPLLKQALNMAPKYVSGAECQTHVWEKDEVDLTLLPIQTCWPGDVAPLITWGLVTTRGPHQSRENMGIYRQQLLSKNKLIMRWLSHRGGALDYQAWQQEYPKERFPVAVTLGADPATILAAVTPVPDTLSEYAFAGLLRGQRTRLTRCIGNDLHVPASAEIVLEGYLEPGNEAPEGPYGDHTGYYNEVQSFPVFTVERITHRDKPIYHSTYTGRPPDEPAILGVALNEVFIPLLQKQFPEIVDFYLPPEGCSYRLAVVTIKKQYPGHAKRIMMAVWSFLRQFMYTKFVIVCDDDVDARNWQDVIWAMTTRMDPSRDTVMVENTPIDYLDFASPVSGLGSKMGMDATSKWPGETQREWGKPITMDEDVLNRVNGYWSLLGLKLEHHHHHH | not soluble |
| MAGLGELERAVMDHLWSTSEPQTVRQVHEALAARRELAYTTVMTVLQRLAKKHLVIQQRDDRAHRYLPVHQREELVASLMVDALQQADKSGSRAAALVHFVGQVGADEADALREALAALEAKERSTGDNQSGTVRAG | not soluble |
| MAGLGHPAAFGRATHAVVRALPESLGQHALRSAKGEEVDVARAERQHQLYVGVLGSKLGLQVVELPADESLPDCVFVEDVAVVCEETALITRPGAPSRRKEVDMMKEALEKLQLNIVEMKDENATLDGGDVLFTGREFFVGLSKRTNQRGAEILADTFKDYAVSTVPVADGLHLKSFCSMAGPNLIAIGSSESAQKALKIMQQMSDHRYDKLTVPDDIAANCIYLNIPNKGHVLLHRTPEEYPESAKVYEKLKDHMLIPVSMSELEKVDGLLTCCSVLINKKVDS | not soluble |
| MAGNSNLMIKTLRKISEILKKPPKASSESDVTVRDKACQALGSIKRLIGDTITAFIGPISTETAKIEKINQYQQEAAEEFKKFQETQPKAGGDGGAENSAENLDENQENSPEKAEKPQVLDAWELLEPEDCSKKIDKSVETQLIDKNWKERLAGAENVKKSMENAGRIEISERLTEISKLLMKIVEKDVNVNVGAISAQILAEIAKKSRFSFAPLALRAFPVVFDKLKDKKAILRDALVEFCDEAANTTPLSAYSEAVITALSNKNPQARQQTALFLSRFFAKNDPKTVETEAVKQLAEHILKTSNDADKEVREAALRIVAAVQKCLGEGVAKRLLAEVYDDKLKAEKLPPLIEELEKEFGSSASPEMLRLAKHYKIGASSTSAPPKTTAAGAPKRPSSAVAPRRAPPASAAPTRRAPSPKAPVVAPTRRAPSPKAPVASVAPVKPKPFVARPAPSFGKPRAAVAPARAPQITQRAPAATRPSTSAIRVTPIAPNVVRNGAPTTAQQAPRKPIGIARPQTSSGIAAPGAPRSRIAMPTTSSSSLARRPGSASSSVPRVPTGAASMTSSSRIRPPSRPGSRPGSRNE | not soluble |
| MAGQVVVNDHLADKAGLQVPVEAEIRLKGEDIPFVSRGGLKLARALEEFGIDVADMTAIDVGASTGGFTDCLLQRGARKVYAVDVGYGQLAWKLRQDSRVVNLEKTNIRYLEPGALPETPGLAVIDASFISLDKVLPSTLRLIGEEGVIVALIKPQFEVGRGEVGKGGVVRDEEKHRRVIADVVALAEGLGLMVLGVTESPILGPKGNREFLIHLKKAVGETPPHNR | not soluble |
| MAGRVPRLTGHCSILSRTYGHSLMDLAALRFYIAPGKKPVIAAGMPWYMALFGRDSLITSYQCCFIAPDIAFNTLRNLANLQGKEYNYFKDEEPGKILHELRFGEKTLLGKKPYSPYFGSADTCQLFLILLHEVFKWTGNKEFVNEFKEPALKALYWIDNFGDMDGDGYVEYKKRSKEGLDNHCWKDSGTSMIFSDSRLAEAPIATVEFQGYIYDAKIRLAELAEEVWDDPSFAEELRNQAKELKRRFNRDFWIEDRGGYFALGLDKNKEKIDSMTSNMGHLLWSGIVEDDRAGIIVKQLMSRDLYNGWGIRTLSSHDRGYNPIEYHNGTVWPHDNSLIAEGFIKYGYRDEANRIITNLLEASQYFDSRFPEVFAGYQRTEVDFPVSYPTSSIPQAWAAGASMLFLRLILGLEPDRKSQSIKIDPYLPQVIEDICVENIRLFNKKFSVFAGKGRSEIKLSEMAGDPLEHHHHHH | not soluble |
| MAHHHHHHHRSEQIAAVRRMVEAYNTGKTDDVADYIHPEYMNPGTLEFTSLRGPELFAINVAWVKKTFSEEARLEEVGIEERADWVRARLVLYGRHVGEMVGMAPTGRLFSGEQIHLLHFVDGKIHHHRDWPDYQGTYRQLGEPWPETEHRRP | soluble |
| MAHHHHHHMAASSPLGMANYVTGDPLGVAGQEAGKGAGALLAAVQQCSAELSHEFGDGVALMTGEPAAATTSSHASPLSPEQRVALSAGAVTCLSVASLPGTTDTAVAVVGTTVGTVALLLIEGSRAVYKVAECSLMEWSSGAITAQDAIVDVAFSMDPAGRPEFVGAASAGCVVVVDVQLLYRPSGNSSRSTDEEVGDTATDAPAAVVHRAEWHQATELWSNSALRAKAVEALERSSAQLVRHCCSDVFACSFVEADVVRILAPQRLQAAVAIDVALVVVLSSGALHYVERVVEGGSVRLLAEHHWQRLAKGAAFTSHASAATQGADSAAENDFSADGTSVHLVTDSRAVPHVIYRYRLSPYHVQACQDGGQTASGGGGNYSMAALALPCATESVTHVCDAHLHFSEKDAACHVVLAGTQRVPVGKVGYMSVASRVGSLGHAQQQQHAGVAGCRTLAWWAVVQNAVLPRQTFDRSALERQALQHQHQQQQQQLHDGHAFPPFRTNAGSPPFTVHVQSNTMALPCGLGTCPASALTSPATSSPATAGAGVASGVSAVGPGQGSGFAAAFMLTDILVLASGHELYVGDLRDVPRSAKTLPVPRPLRSFGSVVEGITAGPYMDARAVLVATGSRVAPVSLV | not soluble |
| MAHHHHHHMAATKLGINGFGRIGRLVFRAAFGRKDIEVVAINDPFMDLNHLCYLLKYDSVHGQFPCEVTHADGFLLIGEKKVSVFAEKDPSQIPWGKCQVDVVCESTGVFLTKELASSHLKGGAKKVIMSAPPKDDTPIYVMGINHHQYDTKQLIVSNASCTTNCLAPLAKVINDRFGIVEGLMTTVHASTANQLVVDGPSKGGKDWRAGRCALSNIIPASTGAAKAVGKVLPELNGKLTGVAFRVPIGTVSVVDLVCRLQKPAKYEEVALEIKKAAEGPLKGILGYTEDEVVSQDFVHDNRSSIFDMKAGLALNDNFFKLVSWYDNEWGYSNRVLDLAVHITTS | soluble |
| MAHHHHHHMAATNSPTEEEVVMRYQQLRQECLAMDSRISELENELHEHQLVADTLKPLNGDRRCHRLVGGALIERTVADILPELVENIKGIEEALAQLNKMLTEKQAAMDEYARKHGVTVAQRQGQTPAGGGGANNDEGEKKPMGADSRGVLV | soluble |
| MAHHHHHHMADATLLHHLIEVLPKAELHVHIEGTLSPELLFELAKRNGVQIPYKTVEEVRVAYNFTDLQSFLDLYYEGMSVLITEDDFEDLAYAYTRVMHESRVVHAEPFFDPQGHLCRGVTFRVLYDGLMRGFRRGEAEFGVSVMLIFSFLRHLSEEECLALVLDDMHPDNGQYIRELFVAKAFVAVGLDSSELGHPPEKFARLYRYCREELKVPFLVAHAGEEGPPEYMRDAMSMLKVDRIDHGVAARLDQALCKDLREKRIPLTVCPTSNVALKVFQDRATCGAVVMDLILTEGLCVTINSDDPAYFGGDIRESFRILAETGRLTPATLKQLVLNSFSSSFIADDSKRAYKERVEKVFKDVCGGTYE | soluble |
| MAHHHHHHMALTLSPVEAALATCVALRYFYAHALHLSAATRVAHSVGPAPHDLSDRFTANLPFEDYLQWGLESIYSDASSAEAHLCLEQLSSNLRDAIMTHANNMEFRFLDEAPSLFDTVLLTSLYLVRSRVLRMPLLSSTSNKPDSNCSVFGPGLDALNHCSTSPAAVVVVSAARRSVVVRARRRINRGEEITLDYRLTGSGRGVSRGHPSHNGSLLRGDVICMNDDWAARYLMN | not soluble |
| MAHHHHHHMANGVTANSMRVSVKAPDLGAFPLDHYRECKSEIEEYYTCLRSNDYVTPMCREQVRAYLQCRMDRGLMKPADIEGFGIPETEFVPMRQHRADIRQQWLRQKMNQVTAVWESYRRDDLNVPDGYERPRGSDSGGRPQPLPGETNKT | not soluble |
| MAHHHHHHMASPASTNPAHDHFETFVQAQLCQDVLSSFQGLCRALGVESGGGLSQYHKIKAQLNYWSAKSLWAKLDKRASQPVYQQGQACTNTKCLVVGAGPCGLRAAVELALLGARVVLVEKRIKFSRHNVLHLWPFTIHDLRALGAKKFYGRFCTGTLDHISIRQLQLLLLKVALLLGVEIHWGVKFTGLQPPPRKGSGWRAQLQPNPPAQLASYEFDVLISAAGGKFVPEGFTIREMRGKLAIGITANFVNGRTVEETQVPEISGVARIYNQKFFQSLLKATGIDLENIVYYKDETHYFVMTAKKQCLLRLGVLRQDLSETDQLLGKANVVPEALQRFARAAADFATHGKLGKLEFAQDARGRPDVAAFDFTSMMRAESSARVQEKHGARLLLGLVGDCLVEPFWPLGTGVARGFLAAFDAAWMVKRWAEGAGPLEVLAERESLYQLLSQTSPENMHRNVAQYGLDPATRYPNLNLRAVTPNQVQDLYDMMDKE | soluble |
| MAHHHHHHMATDLDSFSTYIDHLILLLAARFHAPLEVSVEELLPSSMNLSAEAQCPWELVACSVQQALRTPQTAQERLLMRHLDVHHFSASVCRERARYMQWKLQECRRRRGDKQQLVQSPAVPSAARANTSSTVAASATAAGQPCDVACTSLHNDVCSLYKLVLQSLPSTLGGTESDDDEEDAQAPTTSVQSLASASEPSSFERVHEVFMRTPAEQERDELVARARDEFLSQVQALQSVYYEKYHRWMDVPASVLDPPPASSKQPASTDGAAAALESAAPQRGSESERAALLEALGAAAAPPPRHRKQANHASSSGAADWTEKPHTLASMLHQVQLRRPLRPSAVSDDVLESLYRARAETEEAPKNLCVASGLRSCPPAASTSATPSFAGGCADTITAEAVAVAPSSSQPSSSVAAVRKDTVPPASRRGRWQIVEYDDDDDGEG | not soluble |
